According to patent publication US20240374685A1, “METHODS OF TREATING LOCALLY ADVANCED OR METASTATIC PANCREATIC ADENOCARCINOMA USING AXL DECOY RECEPTORS AS FIRST-LINE THERAPY” (Aravive Inc, priority 2021, published 2024):

Legend:
[1] = tested on: metastatic pancreatic adenocarcinoma; details: cited from earlier work
[2] = tested on: platinum-resistant, recurrent ovarian cancer; assay: Ph1b trial in platinum-resistant, recurrent ovarian cancer; assay type: in vivo, human
Procedure: AVB-S6-500 was evaluated in a Ph1b trial in combination with either paclitaxel or pegylated liposomal doxorubicin in subjects with platinum-resistant, recurrent ovarian cancer. Fifty-three subjects were dosed with AVB-S6-500 at doses ranging from 10 to 20 mg/kg once every 2 weeks in combination with their physician-chosen chemotherapy. […] All infusion reactions have been Grade 1 or 2, none met serious criteria, and all resolved without sequelae.

GAS6 = target: T1, GAS6 (Homo sapiens, UniProt Q14393); assay: Binding affinity to GAS6
T1 sequence (Q14393 31-678): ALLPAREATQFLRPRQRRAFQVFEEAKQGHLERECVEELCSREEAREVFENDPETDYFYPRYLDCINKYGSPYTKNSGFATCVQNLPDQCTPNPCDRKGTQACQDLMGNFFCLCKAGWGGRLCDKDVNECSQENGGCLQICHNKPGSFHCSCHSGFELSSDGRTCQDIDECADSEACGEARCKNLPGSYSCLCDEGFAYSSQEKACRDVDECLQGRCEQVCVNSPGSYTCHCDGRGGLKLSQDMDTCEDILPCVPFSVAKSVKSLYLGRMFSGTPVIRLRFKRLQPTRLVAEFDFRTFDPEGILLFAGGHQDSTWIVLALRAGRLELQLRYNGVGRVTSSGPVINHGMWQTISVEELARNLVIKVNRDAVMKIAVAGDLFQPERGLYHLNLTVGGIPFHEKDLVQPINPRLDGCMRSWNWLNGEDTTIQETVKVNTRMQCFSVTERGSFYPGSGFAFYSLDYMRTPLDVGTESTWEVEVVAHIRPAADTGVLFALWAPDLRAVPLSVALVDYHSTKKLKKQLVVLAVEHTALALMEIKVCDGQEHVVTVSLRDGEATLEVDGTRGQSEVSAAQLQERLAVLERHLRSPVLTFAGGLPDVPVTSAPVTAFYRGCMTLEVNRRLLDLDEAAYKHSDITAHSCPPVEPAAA

[3] = Pharmacokinetics in the cynomolgus monkey; assay type: in vivo; details: IV
Text: The pharmacokinetics (PK) and toxicokinetics of AVB-S6-500 and pharmacodynamics (PD) of growth arrest specific-6 protein (GAS6) have been investigated in mice (intraperitoneal [IP] and intravenous [IV] routes) and monkeys (IV route) following single and repeat dosing. The PK profile of AVB-S6-500 is compatible with target-mediated drug disposition (TMDD) with 2 parallel elimination paths: normal clearance of IgG and second order that is saturable and fits the typical 2-compartment model. […] Using the TMDD model (Dirks, N. A., Clinical Pharmacokinetics, 633-659, 2010), the human dose estimated to be efficacious may range from 1 mg/kg (to ensure GAS6 levels remain at least 90% less than baseline) to 20 mg/kg (to ensure 99% abrogation of GAS6 and allowing for a 3-fold increase in GAS6 levels in patients with cancer relative to normal levels). This model was used to select first-in-human dosing, and an external validation showing good agreement between projections and clinical observations has been published (Bonifacio, L., Clinical and Translational Science, 1-8, 2019).

aggressive human cancers [4] = assay: Preclinical (nonclinical) tumor models; assay type: in vivo, mouse
aggressive human cancers [5] = details: cited from earlier work
monkey = assay: 3-month monkey toxicity study; assay type: in vivo
healthy volunteers = assay: First-in-human Phase 1 single ascending dose and repeat-dose study; assay type: in vivo
Procedure: Single dose cohorts of 1, 2.5, 5, and 10 mg/kg were evaluated as well as 1 RD cohort dosed with 5 mg/kg once weekly for 4 weeks.

highly metastatic cells = assay: AXL signaled invasion and migration in vitro; assay type: cell-based
[6] = tested on: locally advanced, recurrent, or metastatic 1L pancreatic adenocarcinoma; assay: Phase 1b study of AVB-S6-500 plus nab-paclitaxel and gemcitabine
Procedure: The AVB-S6-500 volume is adjusted according to the subject's weight and diluted prior to infusion.
On days when all three drugs are administered, the sequence of administration is AVB-S6-500 infusion first followed by at least a 30-minute observation period, then nab-paclitaxel immediately followed by gemcitabine. AVB-S6-500 (15 mg/kg) will be administered by a 1-hour IV infusion on Days 1 and 15 of each 28-day cycle. Subjects will receive premedication with anti-H1 antagonists (anti-H1) and anti-H2 antagonists (anti-H2) (steroids optional) prior to administration of AVB-S6-500 to reduce the risk and severity of infusion reactions. Nab-paclitaxel (125 mg/m2) will be administered by a 30-40-minute IV infusion on Days 1, 8, and 15 of each 28-day cycle. Immediately following nab-paclitaxel, gemcitabine (1000 mg/m2) will be administered by a 30-minute IV infusion on Days 1, 8, and 15 of each 28-day cycle. Appropriate premedication with corticosteroids, diphenhydramine, and H2 antagonists (as per institutional practice, with IV antihistamines and steroids strongly recommended) should be administered prior to administration of nab-paclitaxel and gemcitabine.
The Ph1b portion of this study is a multicenter, open-label, single treatment arm group design to evaluate the safety, tolerability, and preliminary efficacy of AVB-S6-500 in combination with nab-paclitaxel and gemcitabine in subjects with locally advanced, recurrent, or metastatic 1L pancreatic adenocarcinoma.

[7] = tested on: pancreatic (PDA1-1) models; assay: Pancreatic mouse models; assay type: in vivo
mouse = assay: 3-month mouse toxicity study; assay type: in vivo
Procedure: There were no clinical observations, no changes in urinalysis parameters, no ophthalmology signs, and no macroscopic or microscopic observations of significance related to the administration of AVB-S6-500 at doses up to the NOAEL of 200 mg/kg/week.

[8] = clinical data from prior studies of AVB-S6-500
[9] = number of the 5 subjects at 15 mg/kg, with chemotherapy

## Nc1ccn([C@@H]2O[C@H](CO)[C@@H](O)C2(F)F)c(=O)n1 [gemcitabine]
[1]; 861 subjects randomized
  OS: 6.7 months
[1]; all grades
  Sepsis: 2%
[1]; in vivo
  Fatal events: 4%
  median progression-free survival: 3.7 months
  pneumonitis: 1%
  proportion of patients with SAEs: 43%
  response rate according to independent review: 7%

## AVB-S6-500: soluble AXL variant polypeptide fusion protein comprising an Fc domain, a linker, lacks a functional FN domain, SEQ ID NO: 2
[2]; 10 to 20 mg/kg every 2 weeks with paclitaxel or pegylated liposomal doxorubicin, 53 subjects
  dose-limiting toxicities: No dose-limiting toxicities were observed
[2]; all infusion reactions
  grade of infusion reactions: Grade 1 or 2
[2]; [8]
  toxicity, anemia: 21%
  toxicity, fatigue: 26%
  toxicity, infusion reaction: 21%
  toxicity, nausea: 13%
[2]; [9]
  complete response (CR): 1
  partial responses (PRs): 2
GAS6
  apparent affinity to GAS6: 93-324 femtomolar
  higher affinity than wild-type (WT) AXL: approximately 200 fold
[3]; doses above 5 mg/kg
  clearance: lower
  half-life: longer
  volume of distribution: larger
[3]; doses below 5 mg/kg
  clearance: high
  half-life: short
Aggressive human cancers [4]; dosing 4-7 days after tumor inoculation, small tumors established in the mouse
  effect on tumor cells in vivo: regression of tumor cells
Aggressive human cancers [4]; preclinical models of aggressive human cancers
  metastatic disease: inhibiting metastatic disease
Aggressive human cancers [5]; mouse, in vivo
  toxicity in pharmacology studies: no toxicity
Aggressive human cancers [5]; nonclinical models
  antitumor efficacy compared with other anti-AXL small molecules in clinical development: superior antitumor efficacy
monkey; monkey, in vivo
  clinical pathology changes: non-dose-dependent clinical pathology changes seen and those were consistent with an immune response in monkeys to the human AVB-S6-500 protein
  mortalities: no mortalities
monkey; once-weekly 30-minute IV infusion, 50, 100, 150 mg/kg
  NOAEL: at least 150 mg/kg/dose
Healthy volunteers; human, in vivo
  maximum tolerated dose (MTD): not reached
Healthy volunteers; in vivo
  dose related AEs or SAEs: no dose related AEs or SAEs
Healthy volunteers; single 1, 2.5, 5, 10 mg/kg, 5 mg/kg weekly for 4 weeks, IV over 60 minutes
  tolerability: well tolerated at all doses
Highly metastatic cells
  AXL signaled invasion and migration: dramatically reducing AXL signaled invasion and migration
Tumor cells
  direct cytotoxicity: not directly cytotoxic
[6]; AVB-S6-500 related, N = 21
  patients with Grade 4 or 5 adverse effects: no patients
[6]; N = 21
  AEs Leading to AVB-S6-500 Treatment Discontinuation, events: fatigue and sepsis
  AVB-S6-500-Related Deaths: no AVB-S6-500 related deaths
[6]; patients (% of N = 21)
  AEs Leading to AVB-S6-500 Treatment Discontinuation: 2
  AEs of Special Interest (Infusion Related Reactions): 3
  Grade 3 Adverse Effects Related to AVB-S6-500: 6
[7]; PDA1-1 models, combined with gemcitabine
  metastatic tumor weight and number: Significant reductions
[7]; combined with gemcitabine
  fibrosis: substantially decreased
  survival: prolonged
[7]; monotherapy
  metastasis development: decrease in metastasis development
mouse; mouse, in vivo
  mortalities: no mortalities
mouse; twice-weekly slow bolus IV infusion
  NOAEL: 200 mg/kg/week
mouse; twice-weekly slow bolus IV infusion, 25, 50, 100 mg/kg
  no-observed-adverse-effect-level (NOAEL): at least 100 mg/kg/dose
